Results published in PMC10663608.

Biological target: human EGFR tagged with mTurquoise at the C-terminus (EGFR-mTurquoise) (human) (UniProt P00533)

K (resp) of the transducer function for Y1068 phosphorylation (phosphorylation against ligand-bound EGFR fraction in single vesicles) (fraction of ligand-bound receptors): 0.4 | K (resp) of the transducer function for Y1173 phosphorylation (phosphorylation against ligand-bound EGFR fraction in single vesicles) (fraction of ligand-bound receptors): 0.86
Substance: EGF ligand from mouse labeled with rhodamine at its N-terminus (rho-mEGF)
